B1: LINE1-full (parent)
chain: UACGUAGGUGGUUUUCCCCUGAUAGUGCUAAGGGGGCCUGGAAGUUUGGACUGGGCAGAGCUCAACACAGCGUGGCAAAGUGGCUGUGGCUAGACUGCCUCUCUGGAUUCCUCGUCACUCAGCAGGGCAUCUCUGAGAGAAAUGCC

Variants of: B1
Experiment: self-cleavage, relative activity (ratio to wild type); higher = more cleavage; in vitro, sequencing; the parent is a self-cleaving ribozyme

Variant	self-cleavage
G49C A59G	0.12
G49C A121G	0.93
G49C A138G	1.59
G49C A141U	1.55
G49U A65C	0.04
G49U A92G	0.04
G49U A124U	1.59
G49U A140U	0.8
G49U C71U	0.71
G49U C76U	2.46
G49U C98A	0.04
G49U G70A	0.04
G49U U91C	0.46
G49U U96A	0.02
G49U U96C	0.11
G49U U108C	1.5
G49U U119C	1.2
G49U U132A	1.31
G49U U132C	1.06
A50C A57U	0
A50C A65U	0.31
A50C A77U	0.35
A50C A107G	1.53
A50C A121G	2.3

Variant	self-cleavage
A50C C103U	1.37
A50C C116U	1.34
A50C C120U	1.66
A50C C146U	1.9
A50C G82A	2.06
A50C G122C	1.1
A50C U81A	1.76
A50C U104A	0.87
A50C U112C	1.36
A50C U115C	1.84
A50G A65C	0.1
A50G A65G	0.14
A50G A65U	0.24
A50G A67C	0
A50G A67U	0.1
A50G A69G	0.35
A50G A69U	0.1
A50G A78G	0.53
A50G A78U	1.2
A50G A79C	1.02
A50G A79G	1
A50G A92U	0.37
A50G A94G	0.32
A50G A94U	0.27

Variant	self-cleavage
A50G A107U	1.24
A50G A121G	1.11
A50G A121U	0.48
A50G A129C	0.75
A50G A129G	1.22
A50G A129U	0.26
A50G A136G	1.04
A50G A136U	1.15
A50G A138C	1.12
A50G A138G	1.2
A50G A141G	1
A50G A141U	1.54
A50G C51U	0.62
A50G C56U	0.06
A50G C66A	0.06
A50G C66U	0.08
A50G C68U	0.1
A50G C84U	0.11
A50G C123U	0.43
A50G G53C	0.13
A50G G54A	0.16
A50G G58C	0.11
A50G G80A	1.79
A50G G80U	0.35

Variant	self-cleavage
A50G G82A	1.04
A50G G83A	0.28
A50G G93U	0.05
A50G G105A	0.43
A50G G105C	1.11
A50G G106A	1.41
A50G G122A	0.83
A50G G126A	0.41
A50G G126U	0.76
A50G G127A	0.68
A50G G144A	1.46
A50G G144C	0.83
A50G G144U	0.25
A50G U52C	1.08
A50G U52G	0.18
A50G U73A	0.78
A50G U73C	1.31
A50G U73G	0.34
A50G U81A	1.3
A50G U81C	0.7
A50G U87A	0.03
A50G U87C	0.14
A50G U87G	0.11
A50G U96G	0.26

Variant	self-cleavage
A50G U102C	1.51
A50G U104C	1.08
A50G U108C	1.2
A50G U112C	0.73
A50G U119A	0.96
A50G U130A	0.83
A50G U132C	1.07
A50G U134A	0.68
A50U A57G	0.08
A50U A59U	0.67
A50U A67G	0.33
A50U A69C	0.04
A50U A78G	0.83
A50U A79C	1.3
A50U A79G	1.27
A50U A94U	0.27
A50U A121G	1.09
A50U A124G	0.71
A50U A129G	0.83
A50U A129U	1.12
A50U A140G	1.05
A50U A141U	0.68
A50U A142G	1.01
A50U C90U	0.05

Variant	self-cleavage
A50U C110A	1.53
A50U C146U	1.07
A50U G70C	0
A50U G86A	0.06
A50U G144A	1.37
A50U G144C	0.79
A50U U62C	0.04
A50U U73C	2.09
A50U U81A	1.1
A50U U81G	0.74
A50U U85A	0.05
A50U U91A	0.34
A50U U104C	1.03
A50U U109A	0.78
A50U U115C	1.17
A50U U132C	1.05
A50U U143C	1.16
C51A A138G	1.44
C51A A141G	1.75
C51A U62A	0.02
C51A U73G	0.69
C51A U100C	1.93
C51A U108A	1.31
C51A U115C	1.5

Variant	self-cleavage
C51G C71U	1.5
C51U A59G	0.09
C51U A64U	0.46
C51U A65G	0.05
C51U A67G	0.5
C51U A69G	0.66
C51U A69U	0.04
C51U A77G	2.03
C51U A94G	0.22
C51U A121G	1.85
C51U A136G	1.34
C51U A142U	0.87
C51U C90A	0.01
C51U G137U	1.25
C51U U52C	0.99
C51U U62C	0.05
C51U U73A	1.48
C51U U81C	1.57
C51U U85A	0.09
C51U U91A	0.84
C51U U100C	1.68
C51U U102C	0.41
C51U U104C	1.62
